Measurements: article PMC3029386

Legend:
[1] = molecular target: DevRC (DevR C-terminal domain) (Mycobacterium tuberculosis H37Rv) (UniProt P9WMF9); assay: DNase I footprinting
[2] = molecular target: DevR (full-length) (Mycobacterium tuberculosis) (UniProt P9WMF9); assay: DNase I footprinting
Chain of DevR (full-length) (Mycobacterium tuberculosis) (P9WMF9 whole entry): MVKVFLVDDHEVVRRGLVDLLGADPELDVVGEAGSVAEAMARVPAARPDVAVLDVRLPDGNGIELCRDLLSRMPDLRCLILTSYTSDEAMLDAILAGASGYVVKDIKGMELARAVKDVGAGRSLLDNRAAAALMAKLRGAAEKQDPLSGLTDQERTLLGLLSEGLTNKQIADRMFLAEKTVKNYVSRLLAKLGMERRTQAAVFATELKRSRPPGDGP

Chain of DevRC (DevR C-terminal domain) (Mycobacterium tuberculosis H37Rv) (P9WMF9 141-217): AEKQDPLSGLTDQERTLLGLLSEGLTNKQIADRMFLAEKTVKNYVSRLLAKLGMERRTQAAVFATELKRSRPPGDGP

Sequence: TGGCTGCCGGGCCTTTCCCATCAACGGCTGCGGTCATCTATTAAGGATCGCGCGTCGACAGCCGCGGTGGCAGAGCACGAAGGCTCGCCAGCGGAGGACCTTTGGCCCTGCCTCAACGGCTCCTCGCAGCGGAGAGTGGTACTGACGGTTGCAGATAATCCGGATCACCGGGGAAGGCGCTGACCATG (double strand) [tgs1-Rv3131 intergenic DNA (3130F/3131R)]
- binding [1]: binds
- binding [2]: binds
